Results as given in PMC11444335, “Next-generation cell-penetrating antibodies for tumor targeting and RAD51 inhibition” (Oncotarget, 2024).

Molecular target: T1, human RAD51 (Homo sapiens, UniProt Q06609)
T1 construct: DNA repair protein RAD51, human, expressed from the CMV-hRAD51 plasmid (Addgene #125570); Endogenous RAD51 of the MCF7 cells is also present and would be detected by the same anti-RAD51 blot; also called hRAD51; source: MCF7, transiently transfected with CMV-hRAD51 plasmid, in cells and lysate
Assay: cross-linking + co-IP; CLIP: MCF7 cells transfected with 10 ug CMV-hRAD51 plasmid, treated with 500 nM purified antibody for 6 h, UV crosslinked, lysed; antibody captured on Protein A/G beads, eluate blotted with anti-RAD51; RAD51 signal normalized to Fc signal of the lysate and to WT
Details: one partner purified

T1 sequence (Q06609 whole entry): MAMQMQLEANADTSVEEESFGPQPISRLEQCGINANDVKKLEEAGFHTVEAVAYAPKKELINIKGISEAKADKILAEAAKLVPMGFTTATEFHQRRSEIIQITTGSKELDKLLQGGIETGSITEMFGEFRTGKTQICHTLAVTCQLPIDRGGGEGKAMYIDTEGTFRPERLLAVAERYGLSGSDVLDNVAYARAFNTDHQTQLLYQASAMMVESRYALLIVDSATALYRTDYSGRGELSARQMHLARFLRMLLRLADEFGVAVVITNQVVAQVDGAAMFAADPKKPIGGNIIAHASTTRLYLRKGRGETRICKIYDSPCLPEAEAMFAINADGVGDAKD

binding result	Binder
binds	fully humanized full-length 3E10 variant V31 (VH3 + VL1, IgG1) (antibody, V domains shown, humanized VH3 (CDR graft of 3E10 on germline IGHV3-48*01, with N31); human IgG1 heavy chain constant region; humanized VL1 (CDR graft of 3E10 on germline IGKV7-3*01); IgG1; all humanized variants contain the D31N mutation; source: Chinese hamster ovary cells, purified (Genscript)) VH: EVQLVESGGGLVQPGGSLRLSCAASGFTFSNYGMHWVRQAPGKGLEWVAYISSGSSTIYYADTVKGRFTISRDNAKNSLYLQMTSLRAEDTAMYYCARRGLLLDYWGQGTLVTVSS VL: DIVLTQSPASLAVSPGQRATITCRASKSVSTSSYSYMHWYQQKPGQPPKLLIYYASYLESGVPARFSGSGSGTDFTLTINPVEANDTANYYCQHSREFPWTFGGGTKVEIK
binds	full-length chimeric WT 3E10 (murine variable chains, human IgG1 Fc domain) (antibody, V domains shown, murine 3E10 VH, wild type (D31 in CDR1); human IgG1 heavy chain constant region; murine 3E10 VL, wild type; IgG1 chimera; also called parental 3E10; source: purified antibody) VH: not shown VL: DIVLTQSPASLAVSLGQRATISCRASKSVSTSSYSYMHWYQQKPGQPPKLLIKYASYLESGVPARFSGSGSGTDFTLNIHPVEEEDAATYYCQHSREFPWTFGGGTKLEIK
